In publication doi:10.1101/2025.05.24.655746 (bioRxiv, 2025):

T1: full-length RAD51AP1-H346A (Site-C mutant) (UniProt Q96B01 1-352, H346A)
T1 sequence: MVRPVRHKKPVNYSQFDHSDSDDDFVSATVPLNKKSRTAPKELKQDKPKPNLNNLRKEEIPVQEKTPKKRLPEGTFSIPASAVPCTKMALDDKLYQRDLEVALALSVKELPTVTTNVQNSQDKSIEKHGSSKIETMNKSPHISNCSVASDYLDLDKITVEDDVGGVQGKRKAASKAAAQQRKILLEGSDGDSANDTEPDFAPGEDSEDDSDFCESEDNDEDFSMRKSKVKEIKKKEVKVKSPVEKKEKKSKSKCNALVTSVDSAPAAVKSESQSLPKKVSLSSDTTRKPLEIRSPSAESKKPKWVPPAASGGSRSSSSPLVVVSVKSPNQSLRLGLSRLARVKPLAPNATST

T2: full-length RAD51AP1 variant in which both Site-N and Site-C are mutated (NC) (UniProt Q96B01 1-352)
T2 chain: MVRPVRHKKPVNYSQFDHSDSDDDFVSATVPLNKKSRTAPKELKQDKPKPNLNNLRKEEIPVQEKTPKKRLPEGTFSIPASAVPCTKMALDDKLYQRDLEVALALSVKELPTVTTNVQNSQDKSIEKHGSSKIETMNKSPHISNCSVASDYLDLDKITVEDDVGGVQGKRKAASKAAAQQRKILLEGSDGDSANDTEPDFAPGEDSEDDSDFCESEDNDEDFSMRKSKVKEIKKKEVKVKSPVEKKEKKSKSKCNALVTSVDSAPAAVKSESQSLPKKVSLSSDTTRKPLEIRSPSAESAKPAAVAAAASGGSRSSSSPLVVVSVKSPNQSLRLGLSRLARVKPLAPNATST

T3: full-length RAD51AP1 (RAD51 Associated Protein 1), wild type (UniProt Q96B01 1-352)
T3 sequence: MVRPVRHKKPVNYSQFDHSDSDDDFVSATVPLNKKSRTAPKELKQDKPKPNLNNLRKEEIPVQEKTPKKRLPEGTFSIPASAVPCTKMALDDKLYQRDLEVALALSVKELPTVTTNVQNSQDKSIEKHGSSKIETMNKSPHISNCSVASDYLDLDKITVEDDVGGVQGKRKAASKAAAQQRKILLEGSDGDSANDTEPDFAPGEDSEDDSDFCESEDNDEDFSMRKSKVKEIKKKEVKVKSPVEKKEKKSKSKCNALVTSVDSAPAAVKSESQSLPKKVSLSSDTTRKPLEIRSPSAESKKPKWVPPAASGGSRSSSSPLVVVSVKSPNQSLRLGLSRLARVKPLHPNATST

B1: RAD51 recombinase (natural protein)
chain: MAMQMQLEANADTSVEEESFGPQPISRLEQCGINANDVKKLEEAGFHTVEAVAYAPKKELINIKGISEAKADKILAEAAKLVPMGFTTATEFHQRRSEIIQITTGSKELDKLLQGGIETGSITEMFGEFRTGKTQICHTLAVTCQLPIDRGGGEGKAMYIDTEGTFRPERLLAVAERYGLSGSDVLDNVAYARAFNTDHQTQLLYQASAMMVESRYALLIVDSATALYRTDYSGRGELSARQMHLARFLRMLLRLADEFGVAVVITNQVVAQVDGAAMFAADPKKPIGGNIIAHASTTRLYLRKGRGETRICKIYDSPCLPEAEAMFAINADGVGDAKD

Assays:
[1] = molecular target: T1, full-length RAD51AP1-H346A (Site-C …); test: BLI
[2] = molecular target: T2, full-length RAD51AP1 variant in which …; test: BLI
[3] = molecular target: T3, full-length RAD51AP1 (RAD51 Associated …); test: BLI
RAD51 recombinase = molecular target: B1; test: pull-down

fold decrease in binding affinity against wild type [1]	fold reduction in affinity against wild type [2]	Kd [3]	binding result (RAD51 recombinase)	Binder
~2.5 fold	~4 fold	~600 nM	–	B1
–	–	–	binds	full-length RAD51AP1 Site-N mutant (K300, K303, W304, P306, P307 to alanine) (natural protein) MVRPVRHKKPVNYSQFDHSDSDDDFVSATVPLNKKSRTAPKELKQDKPKPNLNNLRKEEIPVQEKTPKKRLPEGTFSIPASAVPCTKMALDDKLYQRDLEVALALSVKELPTVTTNVQNSQDKSIEKHGSSKIETMNKSPHISNCSVASDYLDLDKITVEDDVGGVQGKRKAASKAAAQQRKILLEGSDGDSANDTEPDFAPGEDSEDDSDFCESEDNDEDFSMRKSKVKEIKKKEVKVKSPVEKKEKKSKSKCNALVTSVDSAPAAVKSESQSLPKKVSLSSDTTRKPLEIRSPSAESAKPAAVAAAASGGSRSSSSPLVVVSVKSPNQSLRLGLSRLARVKPLHPNATST
